Results published in IntAct's records for PubMed 29039417.

B1: BBSome complex member BBS5 (Homo sapiens), Q8N3I7 (parent)
chain: MSVLDALWEDRDVRFDLSAQQMKTRPGEVLIDCLDSIEDTKGNNGDRGRLLVTNLRILWHSLALSRVNVSVGYNCILNITTRTANSKLRGQTEALYILTKCNSTRFEFIFTNLVPGSPRLFTSVMAVHRAYETSKMYRDFKLRSALIQNKQLRLLPQEHVYDKINGVWNLSSDQGNLGTFFITNVRIVWHANMNDSFNVSIPYLQIRSIKIRDSKFGLALVIESSQQSGGYVLGFKIDPVEKLQESVKEINSLHKVYSASPIFGVDYEMEEKPQPLEALTVEQIQDDVEIDSDGHTDAFVAYFADGNKQQDREPVFSEELGLAIEKLKDGFTLQGLWEVMS
partner: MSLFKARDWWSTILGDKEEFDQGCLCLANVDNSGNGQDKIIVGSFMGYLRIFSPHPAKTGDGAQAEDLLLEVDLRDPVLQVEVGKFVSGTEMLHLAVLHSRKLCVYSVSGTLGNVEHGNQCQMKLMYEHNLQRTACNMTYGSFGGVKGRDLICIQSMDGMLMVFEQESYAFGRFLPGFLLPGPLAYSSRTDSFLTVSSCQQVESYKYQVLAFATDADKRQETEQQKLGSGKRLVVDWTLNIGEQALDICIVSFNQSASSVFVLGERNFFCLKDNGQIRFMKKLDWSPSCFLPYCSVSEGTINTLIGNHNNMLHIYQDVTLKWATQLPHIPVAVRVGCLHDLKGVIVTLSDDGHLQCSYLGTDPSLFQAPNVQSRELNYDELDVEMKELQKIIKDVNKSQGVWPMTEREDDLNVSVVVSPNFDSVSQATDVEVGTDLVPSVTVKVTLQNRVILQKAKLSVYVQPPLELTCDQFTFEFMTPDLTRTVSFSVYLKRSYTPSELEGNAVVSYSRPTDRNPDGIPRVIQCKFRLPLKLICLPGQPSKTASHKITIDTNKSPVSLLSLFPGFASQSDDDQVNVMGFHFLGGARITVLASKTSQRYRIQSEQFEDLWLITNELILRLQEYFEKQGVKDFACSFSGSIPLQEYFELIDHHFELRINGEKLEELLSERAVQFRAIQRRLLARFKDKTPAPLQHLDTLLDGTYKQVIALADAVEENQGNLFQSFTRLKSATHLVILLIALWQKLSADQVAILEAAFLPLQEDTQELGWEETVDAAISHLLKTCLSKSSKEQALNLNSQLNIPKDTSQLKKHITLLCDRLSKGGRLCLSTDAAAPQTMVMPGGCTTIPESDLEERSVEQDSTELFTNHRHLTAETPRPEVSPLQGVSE

Variants of: B1
Details: with pthb1_human BBS9, Q3SYG4

effect of a mutation on the interaction	Variant
with no effect	MSVLDALWEDRDVRFDLSAQQMKTRPGEVLIDCLDSIEDTKGNNGDRGRLLVTNLRILWHSLALSRVNVSVGYNCILNITTRTANSKLRGQKEALYILTKCNSTRFEFIFTNLVPGSPRLFTSVMAVHRAYETSKMYRDFKLRSALIQNKQLRLLPQEHVYDKINGVWNLSSDQGNLGTFFITNVRIVWHANMNDSFNVSIPYLQIRSIKIRDSKFGLALVIESSQQSGGYVLGFKIDPVEKLQESVKEINSLHKVYSASPIFGVDYEMEEKPQPLEALTVEQIQDDVEIDSDGHTDAFVAYFADGNKQQDREPVFSEELGLAIEKLKDGFTLQGLWEVMS [T92K]
with no effect	MSVLDALWEDRDVRFDLSAQQMKTRPGEVLIDCLDSIEDTKGNNGDRGRLLVTNLRILWHSLALSRVNVSVGYNCILNITTRTANSKLRGQAEALYILTKCNSTRFEFIFTNLVPGSPRLFTSVMAVHRAYETSKMYRDFKLRSALIQNKQLRLLPQEHVYDKINGVWNLSSDQGNLGTFFITNVRIVWHANMNDSFNVSIPYLQIRSIKIRDSKFGLALVIESSQQSGGYVLGFKIDPVEKLQESVKEINSLHKVYSASPIFGVDYEMEEKPQPLEALTVEQIQDDVEIDSDGHTDAFVAYFADGNKQQDREPVFSEELGLAIEKLKDGFTLQGLWEVMS [T92A]
with no effect	MSVLDALWEDRDVRFDLSAQQMKTRPGEVLIDCLDSIEDTKGNNGDRGRLLVTNLRILWHSLALSRVNVSVGYNCILNITTRTANSKLRGQEEALYILTKCNSTRFEFIFTNLVPGSPRLFTSVMAVHRAYETSKMYRDFKLRSALIQNKQLRLLPQEHVYDKINGVWNLSSDQGNLGTFFITNVRIVWHANMNDSFNVSIPYLQIRSIKIRDSKFGLALVIESSQQSGGYVLGFKIDPVEKLQESVKEINSLHKVYSASPIFGVDYEMEEKPQPLEALTVEQIQDDVEIDSDGHTDAFVAYFADGNKQQDREPVFSEELGLAIEKLKDGFTLQGLWEVMS [T92E]
with no effect	MSVLDALWEDRDVRFDLSAQQMKTRPGEVLIDCLDSIEDTKGNNGDRGRLLVTNLRILWHSLALSRVNVSVGYNCILNITTRTANSKLRGQTEELYILTKCNSTRFEFIFTNLVPGSPRLFTSVMAVHRAYETSKMYRDFKLRSALIQNKQLRLLPQEHVYDKINGVWNLSSDQGNLGTFFITNVRIVWHANMNDSFNVSIPYLQIRSIKIRDSKFGLALVIESSQQSGGYVLGFKIDPVEKLQESVKEINSLHKVYSASPIFGVDYEMEEKPQPLEALTVEQIQDDVEIDSDGHTDAFVAYFADGNKQQDREPVFSEELGLAIEKLKDGFTLQGLWEVMS [A94E]
with no effect	MSVLDALWEDRDVRFDLSAQQMKTRPGEVLIDCLDSIEDTKGNNGDRGRLLVTNLRILWHSLALSRVNVSVGYNCILNITTRTANSKLRGQTEKLYILTKCNSTRFEFIFTNLVPGSPRLFTSVMAVHRAYETSKMYRDFKLRSALIQNKQLRLLPQEHVYDKINGVWNLSSDQGNLGTFFITNVRIVWHANMNDSFNVSIPYLQIRSIKIRDSKFGLALVIESSQQSGGYVLGFKIDPVEKLQESVKEINSLHKVYSASPIFGVDYEMEEKPQPLEALTVEQIQDDVEIDSDGHTDAFVAYFADGNKQQDREPVFSEELGLAIEKLKDGFTLQGLWEVMS [A94K]
with no effect	MSVLDALWEDRDVRFDLSAQQMKTRPGEVLIDCLDSIEDTKGNNGDRGRLLVTNLRILWHSLALSRVNVSVGYNCILNITTRTANSKLRGATEALYILTKCNSTRFEFIFTNLVPGSPRLFTSVMAVHRAYETSKMYRDFKLRSALIQNKQLRLLPQEHVYDKINGVWNLSSDQGNLGTFFITNVRIVWHANMNDSFNVSIPYLQIRSIKIRDSKFGLALVIESSQQSGGYVLGFKIDPVEKLQESVKEINSLHKVYSASPIFGVDYEMEEKPQPLEALTVEQIQDDVEIDSDGHTDAFVAYFADGNKQQDREPVFSEELGLAIEKLKDGFTLQGLWEVMS [Q91A]
with no effect	MSVLDALWEDRDVRFDLSAQQMKTRPGEVLIDCLDSIEDTKGNNGDRGRLLVTNLRILWHSLALSRVNVSVGYNCILNITTRTANSKLRGKTEALYILTKCNSTRFEFIFTNLVPGSPRLFTSVMAVHRAYETSKMYRDFKLRSALIQNKQLRLLPQEHVYDKINGVWNLSSDQGNLGTFFITNVRIVWHANMNDSFNVSIPYLQIRSIKIRDSKFGLALVIESSQQSGGYVLGFKIDPVEKLQESVKEINSLHKVYSASPIFGVDYEMEEKPQPLEALTVEQIQDDVEIDSDGHTDAFVAYFADGNKQQDREPVFSEELGLAIEKLKDGFTLQGLWEVMS [Q91K]
with no effect	MSVLDALWEDRDVRFDLSAQQMKTRPGEVLIDCLDSIEDTKGNNGDRGRLLVTNLRILWHSLALSRVNVSVGYNCILNITTRTANSKLRGETEALYILTKCNSTRFEFIFTNLVPGSPRLFTSVMAVHRAYETSKMYRDFKLRSALIQNKQLRLLPQEHVYDKINGVWNLSSDQGNLGTFFITNVRIVWHANMNDSFNVSIPYLQIRSIKIRDSKFGLALVIESSQQSGGYVLGFKIDPVEKLQESVKEINSLHKVYSASPIFGVDYEMEEKPQPLEALTVEQIQDDVEIDSDGHTDAFVAYFADGNKQQDREPVFSEELGLAIEKLKDGFTLQGLWEVMS [Q91E]
with no effect	MSVLDALWEDRDVRFDLSAQQMKTRPGEVLIDCLDSIEDTKGNNGDRGRLLVTNLRILWHSLALSRVNVSVGYNCILNITTRTANSKLRGQTEAKYILTKCNSTRFEFIFTNLVPGSPRLFTSVMAVHRAYETSKMYRDFKLRSALIQNKQLRLLPQEHVYDKINGVWNLSSDQGNLGTFFITNVRIVWHANMNDSFNVSIPYLQIRSIKIRDSKFGLALVIESSQQSGGYVLGFKIDPVEKLQESVKEINSLHKVYSASPIFGVDYEMEEKPQPLEALTVEQIQDDVEIDSDGHTDAFVAYFADGNKQQDREPVFSEELGLAIEKLKDGFTLQGLWEVMS [L95K]
with no effect	MSVLDALWEDRDVRFDLSAQQMKTRPGEVLIDCLDSIEDTKGNNGDRGRLLVTNLRILWHSLALSRVNVSVGYNCILNITTRTANSKLRGQTEAAYILTKCNSTRFEFIFTNLVPGSPRLFTSVMAVHRAYETSKMYRDFKLRSALIQNKQLRLLPQEHVYDKINGVWNLSSDQGNLGTFFITNVRIVWHANMNDSFNVSIPYLQIRSIKIRDSKFGLALVIESSQQSGGYVLGFKIDPVEKLQESVKEINSLHKVYSASPIFGVDYEMEEKPQPLEALTVEQIQDDVEIDSDGHTDAFVAYFADGNKQQDREPVFSEELGLAIEKLKDGFTLQGLWEVMS [L95A]
disrupting interaction strength	MSVLDALWEDRDVRFDLSAQQMKTRPGEVLIDCLDSIEDTKGNNGDRGRLLVTNLRILWHSLALSRVNVSVGYNCILNITTRTANSKLRGQTEAEYILTKCNSTRFEFIFTNLVPGSPRLFTSVMAVHRAYETSKMYRDFKLRSALIQNKQLRLLPQEHVYDKINGVWNLSSDQGNLGTFFITNVRIVWHANMNDSFNVSIPYLQIRSIKIRDSKFGLALVIESSQQSGGYVLGFKIDPVEKLQESVKEINSLHKVYSASPIFGVDYEMEEKPQPLEALTVEQIQDDVEIDSDGHTDAFVAYFADGNKQQDREPVFSEELGLAIEKLKDGFTLQGLWEVMS [L95E]
with no effect	MSVLDALWEDRDVRFDLSAQQMKTRPGEVLIDCLDSIEDTKGNNGDRGRLLVTNLRILWHSLALSRVNVSVGYNCILNITTRTANSKLRGQTKALYILTKCNSTRFEFIFTNLVPGSPRLFTSVMAVHRAYETSKMYRDFKLRSALIQNKQLRLLPQEHVYDKINGVWNLSSDQGNLGTFFITNVRIVWHANMNDSFNVSIPYLQIRSIKIRDSKFGLALVIESSQQSGGYVLGFKIDPVEKLQESVKEINSLHKVYSASPIFGVDYEMEEKPQPLEALTVEQIQDDVEIDSDGHTDAFVAYFADGNKQQDREPVFSEELGLAIEKLKDGFTLQGLWEVMS [E93K]
with no effect	MSVLDALWEDRDVRFDLSAQQMKTRPGEVLIDCLDSIEDTKGNNGDRGRLLVTNLRILWHSLALSRVNVSVGYNCILNITTRTANSKLRGQTAALYILTKCNSTRFEFIFTNLVPGSPRLFTSVMAVHRAYETSKMYRDFKLRSALIQNKQLRLLPQEHVYDKINGVWNLSSDQGNLGTFFITNVRIVWHANMNDSFNVSIPYLQIRSIKIRDSKFGLALVIESSQQSGGYVLGFKIDPVEKLQESVKEINSLHKVYSASPIFGVDYEMEEKPQPLEALTVEQIQDDVEIDSDGHTDAFVAYFADGNKQQDREPVFSEELGLAIEKLKDGFTLQGLWEVMS [E93A]
with no effect	MSVLDALWEDRDVRFDLSAQQMKTRPGEVLIDCLDSIEDTKGNNGDRGRLLVTNLRILWHSLALSRVNVSVGYNCILNITTRTANSKLRGQTEALYALTKCNSTRFEFIFTNLVPGSPRLFTSVMAVHRAYETSKMYRDFKLRSALIQNKQLRLLPQEHVYDKINGVWNLSSDQGNLGTFFITNVRIVWHANMNDSFNVSIPYLQIRSIKIRDSKFGLALVIESSQQSGGYVLGFKIDPVEKLQESVKEINSLHKVYSASPIFGVDYEMEEKPQPLEALTVEQIQDDVEIDSDGHTDAFVAYFADGNKQQDREPVFSEELGLAIEKLKDGFTLQGLWEVMS [I97A]
with no effect	MSVLDALWEDRDVRFDLSAQQMKTRPGEVLIDCLDSIEDTKGNNGDRGRLLVTNLRILWHSLALSRVNVSVGYNCILNITTRTANSKLRGQTEALEILTKCNSTRFEFIFTNLVPGSPRLFTSVMAVHRAYETSKMYRDFKLRSALIQNKQLRLLPQEHVYDKINGVWNLSSDQGNLGTFFITNVRIVWHANMNDSFNVSIPYLQIRSIKIRDSKFGLALVIESSQQSGGYVLGFKIDPVEKLQESVKEINSLHKVYSASPIFGVDYEMEEKPQPLEALTVEQIQDDVEIDSDGHTDAFVAYFADGNKQQDREPVFSEELGLAIEKLKDGFTLQGLWEVMS [Y96E]
with no effect	MSVLDALWEDRDVRFDLSAQQMKTRPGEVLIDCLDSIEDTKGNNGDRGRLLVTNLRILWHSLALSRVNVSVGYNCILNITTRTANSKLRGQTEALAILTKCNSTRFEFIFTNLVPGSPRLFTSVMAVHRAYETSKMYRDFKLRSALIQNKQLRLLPQEHVYDKINGVWNLSSDQGNLGTFFITNVRIVWHANMNDSFNVSIPYLQIRSIKIRDSKFGLALVIESSQQSGGYVLGFKIDPVEKLQESVKEINSLHKVYSASPIFGVDYEMEEKPQPLEALTVEQIQDDVEIDSDGHTDAFVAYFADGNKQQDREPVFSEELGLAIEKLKDGFTLQGLWEVMS [Y96A]
with no effect	MSVLDALWEDRDVRFDLSAQQMKTRPGEVLIDCLDSIEDTKGNNGDRGRLLVTNLRILWHSLALSRVNVSVGYNCILNITTRTANSKLRGQTEALKILTKCNSTRFEFIFTNLVPGSPRLFTSVMAVHRAYETSKMYRDFKLRSALIQNKQLRLLPQEHVYDKINGVWNLSSDQGNLGTFFITNVRIVWHANMNDSFNVSIPYLQIRSIKIRDSKFGLALVIESSQQSGGYVLGFKIDPVEKLQESVKEINSLHKVYSASPIFGVDYEMEEKPQPLEALTVEQIQDDVEIDSDGHTDAFVAYFADGNKQQDREPVFSEELGLAIEKLKDGFTLQGLWEVMS [Y96K]
